Experimental data published in US20250262210A1 (TRUSTEES OF COLUMBIA UNIVERSITY IN THE CITY OF NEW YORK, published 2025).

How the values were obtained:
[1] = target: T1, ATAD2 (human, UniProt Q6PL18 1-1390, limits assumed); assay: IP/MS, LZTR1 wild type-FLAG, U87
T1 sequence (looked up): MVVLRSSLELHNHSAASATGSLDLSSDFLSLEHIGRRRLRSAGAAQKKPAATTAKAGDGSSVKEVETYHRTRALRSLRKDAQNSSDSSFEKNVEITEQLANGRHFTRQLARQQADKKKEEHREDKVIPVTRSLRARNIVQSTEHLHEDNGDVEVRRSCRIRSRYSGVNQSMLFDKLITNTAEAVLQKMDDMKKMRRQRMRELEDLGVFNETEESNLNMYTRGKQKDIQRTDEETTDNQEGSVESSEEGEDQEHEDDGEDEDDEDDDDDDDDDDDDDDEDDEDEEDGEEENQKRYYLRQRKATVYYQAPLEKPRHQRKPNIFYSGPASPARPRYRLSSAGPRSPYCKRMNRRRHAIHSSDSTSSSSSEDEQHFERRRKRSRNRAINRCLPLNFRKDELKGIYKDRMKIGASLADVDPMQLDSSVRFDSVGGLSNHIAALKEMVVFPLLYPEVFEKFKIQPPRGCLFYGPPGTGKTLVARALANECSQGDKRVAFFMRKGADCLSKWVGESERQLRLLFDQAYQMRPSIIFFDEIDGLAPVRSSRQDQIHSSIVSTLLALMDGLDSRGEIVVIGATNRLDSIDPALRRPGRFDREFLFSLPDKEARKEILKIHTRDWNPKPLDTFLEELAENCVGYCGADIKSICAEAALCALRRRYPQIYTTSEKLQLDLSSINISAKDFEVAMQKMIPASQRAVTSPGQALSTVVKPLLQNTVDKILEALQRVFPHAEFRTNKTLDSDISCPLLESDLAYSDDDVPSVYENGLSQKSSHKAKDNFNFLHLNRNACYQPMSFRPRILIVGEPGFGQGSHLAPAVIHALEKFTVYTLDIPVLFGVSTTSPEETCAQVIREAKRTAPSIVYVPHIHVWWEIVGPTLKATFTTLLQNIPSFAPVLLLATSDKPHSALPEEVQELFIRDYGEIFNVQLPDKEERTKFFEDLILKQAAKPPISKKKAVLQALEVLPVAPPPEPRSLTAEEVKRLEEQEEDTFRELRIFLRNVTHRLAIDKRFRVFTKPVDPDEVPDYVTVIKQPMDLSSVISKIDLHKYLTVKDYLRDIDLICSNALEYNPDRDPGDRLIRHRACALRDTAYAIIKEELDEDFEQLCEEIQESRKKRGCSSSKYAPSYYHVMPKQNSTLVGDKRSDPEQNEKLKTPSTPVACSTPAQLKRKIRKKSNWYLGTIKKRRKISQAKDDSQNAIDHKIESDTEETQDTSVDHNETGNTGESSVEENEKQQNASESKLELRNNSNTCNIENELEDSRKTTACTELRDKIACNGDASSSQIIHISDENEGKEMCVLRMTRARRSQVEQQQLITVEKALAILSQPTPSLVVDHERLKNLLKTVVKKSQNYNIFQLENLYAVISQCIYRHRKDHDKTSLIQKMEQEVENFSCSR
Method in brief: (§1)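 Extracted peptides in 3% acetonitrile/0.1% formic acid ran on a 50 cm C18 column into an Orbitrap Fusion, with MaxQuant identification and spectral counting.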

[2] = target: TRIO (human, UniProt O75962 1-3097, limits assumed); assay: IP/MS, LZTR1 wild type-FLAG, U87
Method in brief: as §1

B1: LZTR1-FLAG (other, human, UniProt Q8N653 1-840, looked up)
chain: MAGPGSTGGQIGAAALAGGARSKVAPSVDFDHSCSDSVEYLTLNFGPFETVHRWRRLPPCDEFVGARRSKHTVVAYKDAIYVFGGDNGKTMLNDLLRFDVKDCSWCRAFTTGTPPAPRYHHSAVVYGSSMFVFGGYTGDIYSNSNLKNKNDLFEYKFATGQWTEWKIEGRLPVARSAHGATVYSDKLWIFAGYDGNARLNDMWTIGLQDRELTCWEEVAQSGEIPPSCCNFPVAVCRDKMFVFSGQSGAKITNNLFQFEFKDKTWTRIPTEHLLRGSPPPPQRRYGHTMVAFDRHLYVFGGAADNTLPNELHCYDVDFQTWEVVQPSSDSEVGGAEVPERACASEEVPTLTYEERVGFKKSRDVFGLDFGTTSAKQPTQPASELPSGRLFHAAAVISDAMYIFGGTVDNNIRSGEMYRFQFSCYPKCTLHEDYGRLWESRQFCDVEFVLGEKEECVQGHVAIVTARSRWLRRKITQARERLAQKLEQEAAPVPREAPGVAAGGARPPLLHVAIREAEARPFEVLMQFLYTDKIKYPRKGHVEDVLLIMDVYKLALSFQLCRLEQLCRQYIEASVDLQNVLVVCESAARLQLSQLKEHCLNFVVKESHFNQVIMMKEFERLSSPLIVEIVRRKQQPPPRTPLDQPVDIGTSLIQDMKAYLEGAGAEFCDITLLLDGHPRPAHKAILAARSSYFEAMFRSFMPEDGQVNISIGEMVPSRQAFESMLRYIYYGEVNMPPEDSLYLFAAPYYYGFYNNRLQAYCKQNLEMNVTVQNVLQILEAADKTQALDMKRHCLHIIVHQFTKVSKLPTLRSLSQQLLLDIIDSLASHISDKQCAELGADI
notes: Expressed in HEK 293T, HeLa or U87 cells; used as cell lysate; also called LZTR1 wild type-FLAG; LZTR1 WT; not shown: FLAG tag at the C-terminus
[1]
  binding result: binds
[2]
  binding result: binds
